The values that follow come from patent US20020165132A1.

Assay [1] concerns the target δ receptor (δ-Binding assay, replacement of 3H-naltrindole). Briefly: δ-Binding, replacement of 3H-naltrindole (radioligand displacement). (In general: Displacement assays read how much labelled ligand stays bound in the presence of the test substance.)
The target in assay [2] is µ-receptor (guinea pig ileum preparation) (guinea pig). Briefly: cell-based or functional assay.
In assay [3] the target is δ-receptor (mouse vas deferens preparation) (mouse) (UniProt P32300). In words: cell-based or functional assay.
Sequence of δ-receptor (mouse vas deferens preparation) (mouse) (P32300 whole entry, stated change not applied): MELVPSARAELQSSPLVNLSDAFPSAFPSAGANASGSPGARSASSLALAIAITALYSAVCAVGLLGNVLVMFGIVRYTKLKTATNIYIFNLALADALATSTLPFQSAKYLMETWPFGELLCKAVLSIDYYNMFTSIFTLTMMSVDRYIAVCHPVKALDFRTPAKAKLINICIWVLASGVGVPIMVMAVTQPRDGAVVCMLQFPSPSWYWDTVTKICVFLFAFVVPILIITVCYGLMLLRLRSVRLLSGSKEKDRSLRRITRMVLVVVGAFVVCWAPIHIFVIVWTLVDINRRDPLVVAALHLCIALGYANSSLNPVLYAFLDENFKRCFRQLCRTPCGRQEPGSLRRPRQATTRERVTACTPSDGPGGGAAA

What is called IC50 is the concentration needed to halve the response being measured. A low value points to greater potency. “Tyr-c[D-AlaL-Gly-Phe-L-AlaL]-NH2 (peptide)”: in assay [1], the IC50 came out at 7 nM.

In assay [1], “Tyr-c[D-AlaL-Gly-Phe-L-AlaL]-OH (peptide)” gave an IC50 of 1 nM.

With “Tyr-c[D-Cys-Gly-Phe-D-Cys]-NH2 (peptide)”, the GPI IC50 in assay [2] came out at 0.78 nM.

For “Tyr-c[D-Cys-Gly-Phe-L-Cys]-NH2 (peptide)”, the GPI IC50 in assay [2] was determined as 1.51 nM.

Substance Tyr-c[D-Cys-Gly-Phe-L-Cys]-OH (peptide) had a GPI IC50 in assay [2] of 3.06 nM.

In assay [3], Tyr-c[D-Pen-Gly-Phe-D-Pen]-OH (peptide) registered an MVD IC50 of 4.1 nM. This substance came in with a GPI IC50 in assay [2] of 7300 nM.
